{"source": "patent US20140289906A1", "about": "“Compositions Having Dicamba Decarboxylase Activity and Methods of Use” (priority 2013, published 2014)", "assay": "14C assay: 14CO2 capture from [14C]-carboxyl-labeled dicamba with IPTG-induced recombinant E. coli cells", "conditions": "for Dicamba Decarboxylase Activity: IPTG-induced recombinant E. coli cells, 14CO2 from [14C]-carboxyl-labeled dicamba; for Enzymatic Detection level: dicamba decarboxylation activity", "data": [{"molecule": "102 (protein, listed as Lactobacillus plantarum) MATKTFKTLDDFLGTHFIYTYDNGWEYEWYAKNDHTVDYRIHGGMVAGRWVTDQKADIVMLTEGIYKISWTEPTGTDVALDFMPNEKKLHGTIFFPKWVEEHPEITVTYQNEHIDLMEQSREKYATYPKLVVPEFANITYMGDAGQNNEDVISEAPYKEMPNDIRNGKYFDQNYHRLNK", "values": [{"measurement": "Dicamba Decarboxylase Activity", "value": "No"}, {"measurement": "Enzymatic Detection level", "value": "No"}]}, {"molecule": "103 (protein, Plasmodium yoelii yoelii) MAMEIPTEEIKFLKKEDVQNIDLNGMSKKERYEIWRRIPKVELHCHLDLTFSAEFFLKWARKYNLQPNMSDDEILDHYLFTKEGKSLAEFIRKAISVSDLYRDYDFIEDLAKWAVIEKYKEGVVLMEFRYSPTFVSSSYGLDVELIHKAFIKGIKNATELLNNKIHVALICISDTGHAAASIKHSGDFAIKHKHDFVGFDHGGREIDLKDHKDVYHSVRDHGLHLTVHAGEDATLPNLNTLYTAINILNVERIGHGIRVSESDELIELVKKKDILLEVCPISNLLLNNVKSMDTHPIRKLYDAGVKVSVNSDDPGMFLSNINDNYEKLYIHLNFTLEEFMIMNNWAFEKSFVSDDVKSELKALYF", "values": [{"measurement": "Dicamba Decarboxylase Activity", "value": "No"}, {"measurement": "Enzymatic Detection level", "value": "No"}]}, {"molecule": "99 (protein, listed as Ralstonia solanacearum) MAIIDCHGHFTTAPTALEDWRKRQIANLATPALGPSPDDLKISDDALTEAIRANQLRLMQARGSDLTIFSPRASFMAHHIGDFHTSATWAAICNALCHRVSQLFPDHFVGAAMLPQSPGVDIRTCIPELARCIVDYGFVGVNLNPDPSGGHWTSPPLSDPYWFPLYEKLVEYDVPAMIHVSTSCNACFHTTGAHYLNADTTAFMQVLTSDLFRRFPTLKFVIPHGGGAVPYHWGRFRGLAQELKTPPLQEHLLHNVFFDTCVYHQPGIDLLTRVIPVDNILFASEMIGAVRGIDPETGHPFDDTRRYIDQAHTLSAEDRHKIYEGNARRVYPRLDARLKARGR", "values": [{"measurement": "Dicamba Decarboxylase Activity", "value": "No"}, {"measurement": "Enzymatic Detection level", "value": "No"}]}, {"molecule": "96 (protein, Aspergillus nidulans) MAPLIVDVHTHVYPPAYMQMLRSRKTVPYVHDPSNNRDPRLIILSSDDDASIPLDQRGRPVDSSYWDINVKLSFMRQHGINCSVISLANPWLDFVEPAEAQMWAERINDDLEKTCATVNKAADPGNTLTLDQKETLFAFGALPLSAPSSESVVAEIKRLKTLEHLRGVIMGTSGLGKGLDDARLDPVWEALQETDMLMFLHPHYGLPEEAYGGPETTGRYGHVLPLALGFPLETTIAVTRMLLSGVFDRFPRLKILLAHSGGTLPFLAGRIESCILHERKFISGGGDVQGPQRSVWDVLKTNIYLDAVVYGKPGLEAAMTASGSDRLLFGTDHPFFPPLDSKDNSWPSVTTNYQAIHATFDTNSKTVADVLGGNAARILNLK", "values": [{"measurement": "Dicamba Decarboxylase Activity", "value": "No"}, {"measurement": "Enzymatic Detection level", "value": "No"}]}, {"molecule": "10 (protein, listed as Starkeya novella) MARKIALEEHFTTPELAGKYVARPTQSDALFADIERRLADFDELRLEMMDRAEIDLMVLSVTTPGVQGVRDTGEAIRLARGANDFLAREVQKRPSRYAGFAHLAMQDAEAAATELERAVRELGFRGALINGQTNGHYLDEDQYAPFWERVQELDVPVYLHPGNMADSPAMFAHRPELGGPIWAWTAETAAHALRLVFGGTFTRFPGAKVILGHMGETLPFLLWRLDSRREFDLGEKLAPDALPSAIIKRNIAVTTSGVCDPAPLVAALQALSDDNVMFSVDYPYEDPQLASKFIETAPIGEETRAKVCHGNAERLLGL", "values": [{"measurement": "Dicamba Decarboxylase Activity", "value": "Low"}, {"measurement": "Enzymatic Detection level", "value": "Low"}]}, {"molecule": "8 (protein, listed as Metarhizium anisopliae) MARGKINFEEAFELPTLADSSREQAALYIAPKDLDRYIYHIKHPLGERLQLANSHGIGYTIYSLTVPGIQGIPDQSKAEQHATTVNDWIANEIKDHRDRLGAFAALSMHDAAQAAAELERCVRQHGFHGALLNNYQHAGPDGETYLFYDQPAYDVFWQKCVELDVPVYLHPAAPAGNYYKQMYAQRKYLVGPPLSFANDVSLHLLGLVTNGVFDRFPKLKVVVGHLGEHIPFDFWRISHWLEDVERPLAAGRGDVMSKKDLLYYFKNNIWVTTSGHFSTPTVRYVADYLGPERIMFSVDTPYETIENGVGWFDGEEDALTRALGGEDGYKKVARENAKKLFKLTKYHDCDA", "values": [{"measurement": "Dicamba Decarboxylase Activity", "value": "Low"}, {"measurement": "Enzymatic Detection level", "value": "Low"}]}, {"molecule": "101 (protein, listed as Aquifex aeolicus) MAQKIALCITGASGVIYGIKLLQVLEELDFSVDLVISRNAKVVLKEEHSLTFEEVLKGLKNVRIHEENDFTSPLASGSRLVHYRGVYVVPCSTNTLSCIANGINKNLIHRVGEVALKERVPLVLLVREAPYNEIHLENMLKITRMGGVVVPASPAFYHKPQSIDDMINFVVGKLLDVLRIEHNLYKRWRG", "values": [{"measurement": "Dicamba Decarboxylase Activity", "value": "No"}, {"measurement": "Enzymatic Detection level", "value": "No"}]}, {"molecule": "104 (protein, Plasmodium Vivax) MANILQEPIDFLKKEELKNIDLSQMSKKERYKIWKRIPKCELHCHLDLCFSADFFVSCIRKYNLQPNLSDEEVLDYYLFAKGGKSLGEFVEKAIKVADIFHDYEVIEDLAKHAVFNKYKEGVVLMEFRYSPTFVAFKYNLDIELIHQAIVKGIKEVVELLDHKIHVALMCIGDTGHEAANIKASADFCLKHKADFVGFDHGGHEVDLKEYKEIFDYVRESGVPLSVHAGEDVTLPNLNTLYSAIQVLKVERIGHGIRVAESQELIDMVKEKNILLEVCPISNVLLKNAKSMDTHPIRQLYDAGVKVSVNSDDPGMFLTNINDDYEELYTHLNFTLEDFMKMNEWALEKSFMDSNIKDKIKNLYF", "values": [{"measurement": "Dicamba Decarboxylase Activity", "value": "No"}, {"measurement": "Enzymatic Detection level", "value": "No"}]}, {"molecule": "98 (protein, Xanthomonas campestris pv.) MAIIDCHGHYTTAPAAHDAFRKAQIAHHDDPQQPAPQYPHISDDALRESIEQHQLRLLRERGADMTIFSPRASTMAHHIGNEAVSQVWTQRCNDLIARVVQLYPHTFIGVCQLPQSPGVPISHSIAELERCVNELGFVGCNLNPDPSGGHWNGVPLTDRAWYPFFEKMVELDVPAMVHVSGSCNANFHATGAHYLNADTTAFMQFLEGDLFRDFPSLRFIIPHGGGAVPYHWGRFRGLADMLGKPPLATHVMRNVFFDTCVYHQPGIDLLFEVIDIDNILFGSEMVGAVRGIDPQTGHYFDDTKRYIDALTISDADKRKVFEGNARRVYPRLDAQLRARGL", "values": [{"measurement": "Dicamba Decarboxylase Activity", "value": "No"}, {"measurement": "Enzymatic Detection level", "value": "No"}]}, {"molecule": "105 (protein, Deinococcus radiodurans) MAIDFHVHLDLYPDPVAVARACEERQLTVLSVTTTPAAWRGTLALAAGRPHVWTALGFHPEVVSERAADLPWFDRYLPETRFVGEVGLDGSPSLRGTWTQQFAVFQHILRRCEDHGGRILSIHSRRAESEVLNCLEANPRSGTPILHWYSGSVTELRRAISLGCWFSVGPTMVRTQKGAALIRSMPRDRVLTETDGPFLELDGQAALPWDVKSVVEGLSKIWQIPASEVERIVKENVSRLLGTVR", "values": [{"measurement": "Dicamba Decarboxylase Activity", "value": "No"}, {"measurement": "Enzymatic Detection level", "value": "No"}]}, {"molecule": "106 (protein, listed as Pyrococcus horikoshii) MAGMKFIKNLHVSKLVIDSMKALINGTIYTSFNPLKKVSGLVISHGKVIYAGDSEVAKKIVELSGGEIVDLKGKYVMPAFFDSHLHLDELGMSLEMVDLRGAKSIEELIQRLKRGKGRIIFGFGWDQDELGEWPTRKELNAIDKPVFIYRKCFHVAVANDKMLELLNLTPSKDFDEDTGIIKEKSLEEARKVINERVLTVEDYVYYIKRAQEHLLDLGVKSVSFMSVNEKALRALFYLEREGKLSINVFAYVTPEVLDKLESIGLGRFQGNRLTIAGVKLFTDGSLGARTALLSKPYSDDPSTSGQLVMEREELIRITEKARSLGLDVAIHAIGDKALDVALDVFETTGFPGRIEHASLVRDDQLERVKNLKVRLSVQPHFIISDWWIVERVGEERVKWVYRFKDLMKVAELGFSTDSPIEPADPWLTVDAAVNRGKGKVKLYELTKDQALDIKDALHSYTYGSARVSLASDIGKLEPGFKAEYIILDRDPLVVK", "values": [{"measurement": "Dicamba Decarboxylase Activity", "value": "No"}, {"measurement": "Enzymatic Detection level", "value": "No"}]}, {"molecule": "9 (protein, listed as Octadecabacter antarcticus) MATPKITFEEHFMAPGFEKHSEAFLKLIPRDQAEILTRRLGDFDGERIETMDRGGITRSIISLTGPGTQGEAVEKAVSAAQGANDFLAEKISKKPDRLGGLATLPMHDPDAAARELNRAVNDLGLQGCLVNTHTHGAYYEGTDYDPFWAEVEKLGVPFYLHPSNAYVTPHVLGGMPVLQGATWGWGVETGSHALRILFGGVFDRFPDVKLVLGHMGEALPFLRWRYDSRFGAYPMGVSLDRAPSAYFGSNILITTSGVCSHPSLIGAIGEMGADAVMFSVDYPYEDTDLAVEFIETAPLEDATRVKICHDNAARLFGMPTLAAKEGA", "values": [{"measurement": "Dicamba Decarboxylase Activity", "value": "No"}, {"measurement": "Enzymatic Detection level", "value": "No"}]}, {"molecule": "107 (protein, listed as Rhodopseudomonas palustris) MAIIDIHGHYTTAPKALEDWRNRQIAGIKDPSVMPKVSELKISDDELQASIIENQLKKMQERGSDLTVFSPRASFMAHHIGDFNVSSTWAAICNELCYRVSQLFPDNFIGAAMLPQSPGVDPKTCIPELEKCVKEYGFVAINLNPDPSGGHWTSPPLTDRIWYPIYEKMVELEIPAMIHVSTSCNTCFHTTGAHYLNADTTAFMQCVAGDLFKDFPELKFVIPHGGGAVPYHWGRFRGLAQEMKKPLLEDHVLNNIFFDTCVYHQPGIDLLNTVIPVDNVLFASEMIGAVRGIDPRTGFYYDDTKRYIEASTILTPEEKQQIYEGNARRVYPRLDAALKAKGK", "values": [{"measurement": "Dicamba Decarboxylase Activity", "value": "No"}, {"measurement": "Enzymatic Detection level", "value": "No"}]}, {"molecule": "97 (protein, listed as Sphingobium sp.) MAMMIIDCHGHYTVLPKAHDEWREQQKAAFKAGQPAPPYPEISDDEIRETIEANQLRLIKERGADMTIFSPRASAMAPHVGDQSVAVPWAQACNNLIARVVDLFPETFAGVCMLPQSPEADMTSSIAELERCVNELGFIGCNLNPDPGGGHFKHPPLTDRFWYPFYEKMVELDVPAMIHVSGSCNPAMHATGAYYLAADTIAFMQLLQGNLFADFPTLRFIIPHGGGAVPYHWGRFRGLADMLKQPSLDTLLMNNVFFDTCVYHQPGINLLADVIDNKNILFGSEMVGAVRGIDPTTGHYFDDTKRYIDALDISDQERHAIFEGNTRRVFPRLDAKLKARGL", "values": [{"measurement": "Dicamba Decarboxylase Activity", "value": "No"}, {"measurement": "Enzymatic Detection level", "value": "No"}]}]}
